In patent US20210284751A1 (MELLITUS, published 2021):

What was measured:
[1] = molecular target: T1, K41 Amadori-modified glycated CD59 (GCD59) (human, UniProt P13987 26-102, Amadori-modified (glycated) lysine at K41, numbered on SEQ ID NO: 1); experiment: sandwich ELISA on urine dilutions (6, 3, 1.5, 0.75, 0.37, 0.18 %): H9 capture, D2 detection, HRP secondary antibody, OD 450 nm converted to SPU with the calibration curve
T1 construct: also called Amadori-modified GCD59; Amadori-modified hGCD59
T1 sequence: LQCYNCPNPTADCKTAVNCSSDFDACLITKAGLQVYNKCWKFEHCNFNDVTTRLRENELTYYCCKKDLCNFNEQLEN
Procedure: GCD59 detection in urine samples was carried out using detection antibody D2, described above, specific for Amadori-modified GCD59. Assay plates were first coated with CD59 capture antibody. H9. Urine samples were obtained from two subjects, one known to have a high level of HbA1C (HbA1C-H) and one known to have a low level of HbA1C (HbAC1-L). High levels of HbA1C are a known indicator of elevated blood glucose. Samples were prepared by first adding beta-mercaptoethanol (BME) to a final concentration of 5%. Samples were then boiled at 100° C. for 5 min and centrifuged to pellet any debris. Supernatants were then isolated for the assay. A surrogate compound standard, as shown in FIG. 27 of U.S. Pat. No. 9,417,248, was used to prepare a dilution series for generating a calibration curve. The Amadori-modified GCD59 surrogate included synthetic compounds including capture and detection peptides linked by a flexible linker.
Standard samples, urine samples, as well as control samples [serum dilution buffer (50 mM Acetic acid/Na acetate; 2% NonIdet P40 Substitute; 0.15% Tween 20; 0.1% Triton X-100; 50 ppm ProClin 300) only] were added to the assay plate in triplicate. Urine samples were further diluted using serum dilution buffer to create a series of conditions ranging from 6% v/v urine sample to 0.2% urine sample in serum dilution buffer. […]

[2] = molecular target: T2, CD59 (human CD59, hCD59) (human, UniProt P13987 26-102); experiment: hybridoma antibody characterisation, method not described
T2 construct: also called non-glycated CD59
T2 sequence: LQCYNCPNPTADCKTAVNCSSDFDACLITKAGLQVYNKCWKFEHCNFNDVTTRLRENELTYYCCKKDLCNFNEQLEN

binding result [1]: binds
binding result [2]: binds
B1: antibody H9 (clone H9), CD59 capture antibody (antibody, mouse IgG1, kappa, V domains shown)
VH: EVQLVESGGDLVKPGGSLKLSCAASGFTFSSYGMSWVRQSPDKRMEWVATISSGGSYTYYPDSVKGRFTVSRDNAKNTLYLQMSSLRSEDTAIFYCVRDRYDGMDYWGQGTSVTVSS
VL: DVVMTQSPLSLPVSLGDQASISCRSSQSLVHSNGNTYLQWYLQKPGQSPNLLIYKVSNRFSGVPDRFSGSGSGTDFTLKISRVEAEDLGVYFCSQSTHVPFTFGSGTKLEIKR
notes: Mouse hybridoma monoclonal antibody
